Results as given in publication PMC12149299 (2025).

Legend:
[1] = target: HIV-1 gp120 protein from the YU2.DG strain (HIV-1, UniProt P35961 32-498); assay: BLI
[2] = target: HIV-1 gp120 protein from the JRCSF.JB strain (HIV-1, UniProt P20871 32-503); assay: BLI

B1: FD22 (antibody)
chain 1: QVQLSQSGGGAVQPGKSLTLSCRAYGFHLFSYVVVWVRQTPQNGLEWVAGAASGGWPQEFMNSVRGRFSISRDDYTVSLQMNALRVDDSGLYFCAQERGLHRLDGAVKFGRWFRAWGQGSQVVVTS
chain 2: QSALTQPASVSGSPGQSITLSCTGADNSVSWYQVVPGRAPKLLIFEVNVRPSEVSDRFSGSKSGDTASLTISRLQIEDESDYYCVTRRGDVTYLFGSGTRVSVL
modifications: biotin (EZ-Link NHS-LC-Biotin) in the competition ELISA only | biotin (EZ-Link NHS-LC-Biotin) in the competition ELISA only
B1 showed a Kd [1] of 12.1 nM and a Kd [2] of 18.1 nM.
